Test results taken from patent US10676527B2, “Methods and compositions for modulation of blood-neural barrier” (Ludwig Institute for Cancer Research Ltd, priority 2006, dated 2020).

Legend:
BBB = test: Evans Blue extravasation (BBB opening) after intraventricular injection; assay type: in vivo; details: C57BL6 mice, 2 μl intraventricular, 3 μM, 1 hour after injection
Protocol: (§1) Wild type C57BL6 mice (10 Week old) were injected intraventricularly into the dorsal third ventricle with 2 μl of PBS, active PDGF-AA, PDGF-BB (both from Preprotech Inc.) and PDGF-CC (see below) (3 μM). Evans Blue was given intravenously immediately after the injection. One hour after the injection, the animals were perfused with PBS and the brain tissue was removed and processed for Evans Blue extravasation.
as §1, with “of either” for “of”, “PBS, wild type murine tPA (3 μM),” for “PBS,”, “active” for “active PDGF-AA, PDGF-BB (both from Preprotech Inc.) and”, “(3 μM), or wild type murine tPA (3 μM) plus active PDGF-CC” for “(see below)”
Wt C57BL6 mice (10 Week old) were injected intraventricularly with 3 μl of either PBS, wild type murine tPA (3 μM), wild type murine tPA (3 μM) with rabbit anti-PDGF-CC (150 μg/ml). Evans Blue was given intravenously immediately after the injection. One hour after the injection, the animals were perfused with PBS and the brain tissue was removed and processed for Evans Blue extravasation.

cerebral vessels = test: electron microscopy of cerebral vessels after intraventricular injection (edema); assay type: in vivo; details: mice, 2 μL at 1 μM intraventricular, 1 hour after injection, cortex
Protocol: Electron microscopy of vessels in the brain from mice treated by intraventricular injection 1 hour prior to analysis. Panel A, PBS; panel B, tPA (2 μL at a concentration of a 1 μM); panels C and D PDGF-CC (3 μL at a concentration of a 1 μM). Panels B-D show arterioles surrounded by fluid-filled spaces indicative of developing edema. The approximate magnification is indicated on each panel.
Specifically, tPA or active PDGF-CC (2 μL each at a concentration a 1 μM) were injected intraventricularly into mice, and morphological analysis of the cerebrovascular structure was performed. PBS was used as control. […] FIGS. 5B-D show arterioles surrounded by fluid-filled spaces indicative of developing edema. The approximate magnification is indicated on each panel.

B1: tPA: wild type murine tissue-type plasminogen activator, serine protease thrombolytic agent (protein, UniProt P11214 33-559, looked up)
Tissue-type plasminogen …: SYRATCRDEPTQTTYQQHQSWLRPMLRSSRVEYCRCNSGLVQCHSVPVRSCSEPRCFNGGTCQQALYFSDFVCQCPDGFVGKRCDIDTRATCFEEQGITYRGTWSTAESGAECINWNSSVLSLKPYNARRPNAIKLGLGNHNYCRNPDRDLKPWCYVFKAGKYTTEFCSTPACPKGKSEDCYVGKGVTYRGTHSLTTSQASCLPWNSIVLMGKSYTAWRTNSQALGLGRHNYCRNPDGDARPWCHVMKDRKLTWEYCDMSPCSTCGLRQYKRPQFRIKGGLYTDITSHPWQAAIFVKNKRSPGERFLCGGVLISSCWVLSAAHCFLERFPPNHLKVVLGRTYRVVPGEEEQTFEIEKYIVHEEFDDDTYDNDIALLQLRSQSKQCAQESSSVGTACLPDPNLQLPDWTECELSGYGKHEASSPFFSDRLKEAHVRLYPSSRCTSQHLFNKTVTNNMLCAGDTRSGGNQDLHDACQGDSGGPLVCMINKQMTLTGIISWGLGCGQKDVPGVYTKVTNYLDWIHDNMKQ
- opening of the BBB (Evans Blue extravasation) (BBB; Example 3, FIG. 3): potent inducers of opening of the BBB
- edema formation around cerebral vessels (transmission electron micrographs) (cerebral vessels): induce areas of fluid accumulation surrounding the vessels

B2: PDGF-BB: active platelet-derived growth factor BB dimer (from Preprotech Inc.) (protein, UniProt P01127 82-190, looked up)
Platelet-derived growth …: SLGSLTIAEPAMIAECKTRTEVFEISRRLIDRTNANFLVWPPCVEVQRCSGCCNNRNVQCRPTQVQLRPVQVRKIEIVRKKPIFKKATVTLEDHLACKCETVAAARPVT
- vascular permeability / opening of the BBB (Evans Blue extravasation) (BBB; Example 1, FIG. 1): induce increased vascular permeability
